Measured values as given in patent publication US20150284436A1 (published 2015).
Blank lines part the entries; values can stand above or below the binder they belong to.

Columns and labels:
[1] = target: T1, FLAG-tagged TXNIP with Cys63 substituted with serine (human, UniProt Q9H3M7 1-391); assay: GST pull-down / co-IP from 293T lysates, Western blot
T1 chain: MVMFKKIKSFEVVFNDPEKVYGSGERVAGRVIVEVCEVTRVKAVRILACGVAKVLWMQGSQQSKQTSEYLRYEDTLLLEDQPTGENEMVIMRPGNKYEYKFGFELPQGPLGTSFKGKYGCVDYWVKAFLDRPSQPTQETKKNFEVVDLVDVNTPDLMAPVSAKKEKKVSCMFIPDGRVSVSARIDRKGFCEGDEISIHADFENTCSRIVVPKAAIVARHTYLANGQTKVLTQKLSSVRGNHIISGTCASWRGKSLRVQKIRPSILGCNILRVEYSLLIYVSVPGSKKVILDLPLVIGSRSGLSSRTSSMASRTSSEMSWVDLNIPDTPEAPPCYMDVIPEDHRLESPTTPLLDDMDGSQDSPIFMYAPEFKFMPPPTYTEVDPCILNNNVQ
Method: (§1) Coimmunoprecipitation assays were performed using lysates from 293T cells transfected with combinations of FLAG-tagged or HA-tagged TXNIP plasmids and GST-tagged or FLAG-tagged TXNIP plasmids. Immobilized proteins on FLAG-agarose beads or glutathione beads were visualized by Western blot analysis using anti-HA, anti-FLAG, or anti-GST antibodies. One percent of WCL was used as the input;
(§2) To test the in vivo interprotomer interaction between TXNIP molecules, HEK 293T cells were transfected with plasmids expressing HA-tagged-TXNIP and FLAG-tagged T-TXNIP. 24 hours later, the cells were harvested and lysed in the 50 mM iodoacetamide-containing buffer [0.5% Triton X-100, 150 mM NaCl, 10% glycerol, 1 mM NaF, 1 mM AEBSF, 2 μg/mL leupeptin, 5 μg/mL aprotinin and 20 mM HEPES (pH 7.2)]. After centrifugation at 16,000 rpm for 20 minutes, the supernatant was incubated with anti-FLAG M2 agarose (Sigma) at 4° C. for 12 hours. The immobilized proteins were collected by centrifugation and washed three times with the lysis buffer. The bound proteins were subjected to SDS-PAGE under reduced and non-reduced conditions. […] 24 hours later, the cells were harvested and lysed in the lysis buffer. […]

[2] = target: T2, FLAG-tagged TXNIP with Cys247 substituted with serine (human, UniProt Q9H3M7 1-391); assay: as above
T2 chain: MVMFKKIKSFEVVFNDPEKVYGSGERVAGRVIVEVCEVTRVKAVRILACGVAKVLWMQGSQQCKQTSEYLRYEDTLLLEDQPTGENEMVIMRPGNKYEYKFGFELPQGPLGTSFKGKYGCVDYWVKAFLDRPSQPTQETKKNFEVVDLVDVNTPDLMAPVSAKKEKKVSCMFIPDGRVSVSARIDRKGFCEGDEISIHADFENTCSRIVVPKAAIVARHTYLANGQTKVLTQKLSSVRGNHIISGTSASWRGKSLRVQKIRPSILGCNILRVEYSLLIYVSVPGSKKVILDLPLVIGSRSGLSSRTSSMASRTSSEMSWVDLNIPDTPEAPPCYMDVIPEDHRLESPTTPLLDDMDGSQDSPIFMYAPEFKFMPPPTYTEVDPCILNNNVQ
Method: as §1, §2

[3] = target: the molecule itself; assay: non-reducing SDS-PAGE after air oxidation
Method: TRX(C73)-T-TXNIP(C36S/C49S/C120S/C170S/C205S/C267S) complex was incubated with 100 mM DTT and subjected to size exclusion chromatography to isolate T-TXNIP(C36S/C49S/C120S/C170S/C205S/C267S) from remained protein complex and TRX. The fractions containing T-TXNIP(C36S/C49S/C120S/C170S/C205S/C267S) were collected and dialyzed against 50 mM Tris-HCl (pH 8.0), 500 mM NaCl and 10% glycerol to induce the formation of disulfide bonds between TXNIP molecules;
For analysis by mass spectrometry in vitro, purified TRX(C73A)-T-TXNIP(C36S/C49S/C120S/C170S/C205S/C267S) complex was incubated with 100 mM DTT for 1 hour at room temperature and injected to the Superdex™ 200 10/300 GL gel filtration column installed on an AKTA purifier FPLC system to obtain T-TXNIP(C36S/C49S/C120S/C170S/C205S/C267S) from remained protein complex and TRX(C73 Å). The fractions containing T-TXNIP(C36S/C49S/C120S/C170S/C205S/C267S) were dialyzed against 50 mM Tris-HCl (pH 8.0), 500 mM NaCl and 10% glycerol to induce the formation of disulfide bonds between TXNIP molecules through air oxidation. Dialyzed proteins were then subjected to SDS-PAGE under non-reducing conditions.

[4] = target: T3, TRX(C73A), tag-free, co-expressed in complex (human, UniProt P10599 1-105); assay: purified co-expressed complex, gel filtration before and after ROS treatment
T3 construct: Used in complex with T-TXNIP(C36S/C49S/C120S/C170S/C205S/C267S) to avoid TRX dimerization
T3 chain: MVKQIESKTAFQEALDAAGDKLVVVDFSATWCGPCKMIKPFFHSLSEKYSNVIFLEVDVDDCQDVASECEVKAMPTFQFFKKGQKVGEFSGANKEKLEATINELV
Method: In detail, the TRX-T-TXNIP(C120S/C170S/C205S/C267S) complex was incubated with H₂O₂ at 37° C. for 30 minutes (a). The TRX(C73A)-T-TXNIP(C36S/C49S/C120S/C170S/C205S/C267S) complex was incubated with diamide at 37° C. for 30 minutes. The reaction products were injected onto a HiLoad™ 16/60 Superdex™ 75 gel filtration column at room temperature (b). The TRX Cys35 residue is essential for dissociation between TRX and TXNIP. The TRX(C35A)-T-TXNIP(C120S/C170S/C205S/C267S) complex was incubated with diamide at 37° C. for 60 minutes and the reaction products were injected onto the Superdex™ 75 10/300 GL gel filtration column (c). Eluted T-TXNIP and TRX after the ROS treatments are indicated for each reaction. All eluted proteins were analyzed by SDS-PAGE;
The TRX and T-TXNIP(C120S/C170S/C205S/C267S) complex was used to circumvent non-functional cysteine-induced aggregation. The complex (at a concentration of 0.05 mM) was incubated with H₂O₂ at concentrations in the range of 0 to 10 mM in 50 mM Tris-HCl (pH 8.0), 500 mM NaCl, and 10% glycerol at 37° C. The TRX([…]) and T-TXNIP(C36S/C49S/C120S/C170S/C205S/C267S) complex was also used to avoid TRX dimerization and non-functional cysteine-induced aggregation. This complex was incubated with 0 to 3 mM diamide in 50 mM Tris-HCl (pH 8.0), 500 mM NaCl, and 10% glycerol at 37° C. […]

[5] = target: T4, N-TXNIP (N-terminal domain of TXNIP, residues 3-156) (human, UniProt Q9H3M7 3-156); assay: 1H-15N HSQC NMR
T4 construct: The NMR sample was 15N-labeled and its hexahistidine-tag was removed by rTEV; In the Ni-NTA co-purification it carried the N-terminal hexahistidine-tag; also called N-terminal TXNIP; ^15N-labeled N-TXNIP
T4 chain: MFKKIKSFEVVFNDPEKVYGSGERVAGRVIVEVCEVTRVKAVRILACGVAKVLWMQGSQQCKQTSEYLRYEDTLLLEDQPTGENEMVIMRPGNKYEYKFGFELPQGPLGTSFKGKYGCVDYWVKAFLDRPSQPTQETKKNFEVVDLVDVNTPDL
Method: NMR interaction experiments were carried out by recording ¹H-¹⁵N NMR HSQC spectra of ¹⁵N-labeled N-TXNIP upon addition of unlabeled TRX or its mutant, which was reduced with 5 mM DTT and dialyzed against 50 mM potassium phosphate (pH 6.6) prior to the interaction study to remove excess DTT.
The ¹H-¹⁵N HSQC spectra of all proteins were measured on a Bruker 900 MHz NMR spectrometer at the Korea Basic Science Institute (Ochang, Korea). The NMR measurements were performed using 0.3 mM ¹⁵N-labeled protein in 50 mM potassium phosphate (pH 6.6) containing 10% D₂O at 25° C. All NMR spectra were processed with Topspin 2.1 and analyzed with the program SPARKY 3.1.
Further, TRX muteins were added and ¹H-¹⁵N HSQC spectra of ¹⁵N-labeled N-TXNIP were monitored to examine interaction between N-TXNIP and TRX. […] In contrast, C62A, C69A, and C73A mutants caused a chemical shift similar to the wild-type TRX (FIG. 12).

binding result [1]: no binding
B1: GST-fused TXNIP with Cys63 substituted with serine (other)
chain: MVMFKKIKSFEVVFNDPEKVYGSGERVAGRVIVEVCEVTRVKAVRILACGVAKVLWMQGSQQSKQTSEYLRYEDTLLLEDQPTGENEMVIMRPGNKYEYKFGFELPQGPLGTSFKGKYGCVDYWVKAFLDRPSQPTQETKKNFEVVDLVDVNTPDLMAPVSAKKEKKVSCMFIPDGRVSVSARIDRKGFCEGDEISIHADFENTCSRIVVPKAAIVARHTYLANGQTKVLTQKLSSVRGNHIISGTCASWRGKSLRVQKIRPSILGCNILRVEYSLLIYVSVPGSKKVILDLPLVIGSRSGLSSRTSSMASRTSSEMSWVDLNIPDTPEAPPCYMDVIPEDHRLESPTTPLLDDMDGSQDSPIFMYAPEFKFMPPPTYTEVDPCILNNNVQ

binding result [2]: no binding
B2: GST-fused TXNIP with Cys247 substituted with serine (other)
chain: MVMFKKIKSFEVVFNDPEKVYGSGERVAGRVIVEVCEVTRVKAVRILACGVAKVLWMQGSQQCKQTSEYLRYEDTLLLEDQPTGENEMVIMRPGNKYEYKFGFELPQGPLGTSFKGKYGCVDYWVKAFLDRPSQPTQETKKNFEVVDLVDVNTPDLMAPVSAKKEKKVSCMFIPDGRVSVSARIDRKGFCEGDEISIHADFENTCSRIVVPKAAIVARHTYLANGQTKVLTQKLSSVRGNHIISGTSASWRGKSLRVQKIRPSILGCNILRVEYSLLIYVSVPGSKKVILDLPLVIGSRSGLSSRTSSMASRTSSEMSWVDLNIPDTPEAPPCYMDVIPEDHRLESPTTPLLDDMDGSQDSPIFMYAPEFKFMPPPTYTEVDPCILNNNVQ

binding result [4]: binds
B3: T-TXNIP(C36S/C49S/C120S/C170S/C205S/C267S) (other)
chain: MFKKIKSFEVVFNDPEKVYGSGERVAGRVIVEVSEVTRVKAVRILASGVAKVLWMQGSQQCKQTSEYLRYEDTLLLEDQPTGENEMVIMRPGNKYEYKFGFELPQGPLGTSFKGKYGSVDYWVKAFLDRPSQPTQETKKNFEVVDLVDVNTPDLMAPVSAKKEKKVSSMFIPDGRVSVSARIDRKGFCEGDEISIHADFENTSSRIVVPKAAIVARHTYLANGQTKVLTQKLSSVRGNHIISGTCASWRGKSLRVQKIRPSILGSNILRVEYSLLIYVSVPGSKKVILDLPLVIGSRSGLSSRTSSMASRTSSEM
notes: 1 residues 3-317 (T-TXNIP) with the six printed substitutions; also called monomeric T-TXNIP mutant
binding result [3]: binds

binding result [5]: no binding
B4: TRX C32A mutant (NMR sample) (enzyme)
chain: MVKQIESKTAFQEALDAAGDKLVVVDFSATWAGPCKMIKPFFHSLSEKYSNVIFLEVDVDDCQDVASECEVKCMPTFQFFKKGQKVGEFSGANKEKLEATINELV
notes: not shown: C-terminal hexahistidine-tag from pET21 vector
